Assay results taken from patent publication US9206239B2, “Treatment of cancers with immunostimulatory HIV Tat derivative polypeptides” (PIN Pharma, Inc., priority 2009, dated 2015).
Entries after “also recorded” stand apart in the source; their conditions may differ.

Tests used:
4T1 cells = test: Repeated dosing of Nani-P2 alternating with cyclophosphamide in 4T1 tumor-bearing mice; format: in vivo, BALB/c mice; conditions: by day 42; 80 mg/kg IP weekly from day 10
Experimental: Four groups of 10 BALB/c mice were implanted with 1×10^4 4T1 cells SC into the mammary fat pad. Treatment was initiated when tumor diameters reached 4-5 mm, on day 10. Control mice were injected IV with PBS at 3 days intervals, while alternating treatment mice received 3 doses of drug every 3 days in rotating 10 day cycles. Tumor burden (tumor size mm^3) was calculated using a standard formula. CY: (cyclophosphamide alone) mice were injected IP weekly with 80 mg/kg per mouse beginning on day 10. Cy/Nani-P2: (cyclophosphamide first followed by Nani-P2) mice were first injected IP with cyclophosphamide (80 mg/kg) at 3 days intervals for three doses starting at day 10 and then injected IV with Nani-P2 (40 ng) at 3 days intervals for three doses in rotation. The cycle of 3 doses of CY followed by 3 doses of Nani-P2 was repeated until day 50. Nani-P2/CY: (Nani-P2 first followed by cyclophosphamide): mice were first injected IV with Nani-P2 (40 ng) at 3 day intervals for 3 doses starting on day 10 and then injected i.p. with cyclophosphamide at 3 day intervals in rotation. The cycle of 3 doses of Nani-P2 followed by 3 doses of CY was repeated until day 50.

4T1 breast tumor cells = test: 4T1 breast tumor growth in BALB/c mice; format: in vivo
Excerpt: Female BALB/c mice 6 to 8 weeks old were purchased from the Jackson Laboratory (Bar Harbor, […].). Mice were acclimated for at least 1 week before use. Mice were kept in pathogen-free conditions at the Animal Maintenance Facility of the Columbia University of Medical Center and all experiments were approved by the Institutional Animal Care and Use Committee of Columbia University of Medical Center.
4T1 cells, a 6-thioguanine-resistant cell line derived from a BALB/c spontaneous mammary carcinoma was obtained from ATCC; TS/A, a murine adenocarcinoma cell line was provided by Dr. Sandra Demaria (Demaria S. et al. Clin Cancer Res. 11:728-34, 2005); and SM1, the BALB/C-derived mammary carcinoma was kindly was provided by Dr. James Allison, University of California, Berkeley. All tumor cell lines were cultured in DMEM, supplemented with 2 mM L-glutamine, 10 mM HEPES, 150 units/ml penicillin/streptomycin, 10% heat-inactivated FCS (Invitrogen), 50 μM 2-mercaptoethanol (Sigma), and 50 mg/L gentamicin (Lanza).
BALB/c were injected (SC) with 1×10^4 4T1, 1×10^5 TS/A or 2×10^5 SM1 cells, respectively, in the left mammary pad on day 0. Immunotherapy was performed by directly injecting a Tat derivative into the right flank at 0, 7, 12, and 17 days after establishment of tumors. The control group received PBS injection. […] Tumor burden (tumor volume) was measured and recorded three times weekly. Animals were sacrificed when tumors reached a volume of 15 mm in diameter and the tumors harvested and weighed.
The therapeutic effect of systemic administration of synthetic, Tat-derived compositions in murine models of breast cancer was investigated. To compare the relative protection conferred by a small panel of different derivatives against primary breast tumor growth, female BALB/c mice were injected with 1×10^4 4T1 breast tumor cells SC into the mammary pad, and then treated with 400 ng partially-purified Tat derivatives at day 0, 7, 14 and 21 (SC injection in PBS) into the draining axillary lymph nodes.

Which treated mice dead (4T1 cells) does the source give for O=P1(N(CCCl)CCCl)NCCCO1 (stereo not drawn) [cyclophosphamide, reference compound] here?
The treated mice dead was 10/10.

B1: Nani-P3: HIV Tat derivative polypeptide, SEQ ID NO: 4; serine-rich TARA homology sequence replaces the SH3 binding sequence (protein)
chain: METPLKEQENSLESCREHSSSISEVDVPTPVSCLRKGGRCWNRCIGNTRQIGSCGVPFLKCCKRKPFTRKGLGISYGRKKRRQRRRAPQDSQTHQASLSKQPASQSRGDPTGPTESKKKVERETETDPFD
modifications: Nani-P3 modified HIV Tat sequence
With B1 as the molecule, how does the “4T1 primary tumor growth vs controls” value (4T1 breast tumor cells; 400 ng or 2 μg SC days 0, 7, 14, 21) read?
Its value is “less effective at suppressing 4T1 primary tumor growth; also recorded: no difference”.

B2: Nani-P1: HIV Tat derivative polypeptide, SEQ ID NO: 2; internal prolines of the SH3-binding site each substituted as alanine (protein)
chain: MEPVDANLEAWKHAGSQPRKTACTTCYCKKCCFHCQVCFTRKGLGISYGRKKRRQRRRAPQDSQTHQASLSKQPASQSRGDPTGPTESKKKVERETETDPFD
modifications: Nani-P1 modified HIV Tat sequence
For B2, which “tumor burden compared to control mice receiving PBS” value (4T1 breast tumor cells; 400 ng partially-purified derivative SC day 0, 7, 14, 21, apparent from day 15 (p<0.05)) is on record?
Its value is “significantly reduced tumor burden”.
